Measured values reported in US12104181B2, “Compositions and methods for treating viral infections targeting TRIM7” (THE BOARD OF REGENTS OF THE UNIVERSITY OF TEXAS SYSTEM, priority 2021, dated 2024).

Test system: coxsackievirus B3 (CVB3-GFP)
Assay type: cell-based
Conditions: HeLa cells, replicate R1; for Percent Infected R1: GFP-positive cells within RFP-positive gate

Molecule | Percent Infected R1 [%] | Z score R1
TRIM37: human RING type E3 ligase expressed from lentiviral vector (protein, UniProt O94972 1-964, looked up, lentiviral expression, human RING type E3 ligase expressed from lentiviral vector) E3 ubiquitin-protein ligase …: MDEQSVESIAEVFRCFICMEKLRDARLCPHCSKLCCFSCIRRWLTEQRAQCPHCRAPLQLRELVNCRWAEEVTQQLDTLQLCSLTKHEENEKDKCENHHEKLSVFCWTCKKCICHQCALWGGMHGGHTFKPLAEIYEQHVTKVNEEVAKLRRRLMELISLVQEVERNVEAVRNAKDERVREIRNAVEMMIARLDTQLKNKLITLMGQKTSLTQETELLESLLQEVEHQLRSCSKSELISKSSEILMMFQQVHRKPMASFVTTPVPPDFTSELVPSYDSATFVLENFSTLRQRADPVYSPPLQVSGLCWRLKVYPDGNGVVRGYYLSVFLELSAGLPETSKYEYRVEMVHQSCNDPTKNIIREFASDFEVGECWGYNRFFRLDLLANEGYLNPQNDTVILRFQVRSPTFFQKSRDQHWYITQLEAAQTSYIQQINNLKERLTIELSRTQKSRDLSPPDNHLSPQNDDALETRAKKSACSDMLLEGGPTTASVREAKEDEEDEEKIQNEDYHHELSDGDLDLDLVYEDEVNQLDGSSSSASSTATSNTEENDIDEETMSGENDVEYNNMELEEGELMEDAAAAGPAGSSHGYVGSSSRISRRTHLCSAATSSLLDIDPLILIHLLDLKDRSSIENLWGLQPRPPASLLQPTASYSRKDKDQRKQQAMWRVPSDLKMLKRLKTQMAEVRCMKTDVKNTLSEIKSSSAASGDMQTSLFSADQAALAACGTENSGRLQDLGMELLAKSSVANCYIRNSTNKKSNSPKPARSSVAGSLSLRRAVDPGENSRSKGDCQTLSEGSPGSSQSGSRHSSPRALIHGSIGDILPKTEDRQCKALDSDAVVVAVFSGLPAVEKRRKMVTLGANAKGGHLEGLQMTDLENNSETGELQPVLPEGASAAPEEGMSSDSDIECDTENEEQEEHTSVGGFHDSFMVMTQPPDEDTHSSFPDGEQIGPEDLSFNTDENSGR | 58.8 | −0.379
TRIM38: human RING type E3 ligase expressed from lentiviral vector (protein, UniProt O00635 1-465, looked up, lentiviral expression, human RING type E3 ligase expressed from lentiviral vector) E3 ubiquitin-protein ligase …: MASTTSTKKMMEEATCSICLSLMTNPVSINCGHSYCHLCITDFFKNPSQKQLRQETFCCPQCRAPFHMDSLRPNKQLGSLIEALKETDQEMSCEEHGEQFHLFCEDEGQLICWRCERAPQHKGHTTALVEDVCQGYKEKLQKAVTKLKQLEDRCTEQKLSTAMRITKWKEKVQIQRQKIRSDFKNLQCFLHEEEKSYLWRLEKEEQQTLSRLRDYEAGLGLKSNELKSHILELEEKCQGSAQKLLQNVNDTLSRSWAVKLETSEAVSLELHTMCNVSKLYFDVKKMLRSHQVSVTLDPDTAHHELILSEDRRQVTRGYTQENQDTSSRRFTAFPCVLGCEGFTSGRRYFEVDVGEGTGWDLGVCMENVQRGTGMKQEPQSGFWTLRLCKKKGYVALTSPPTSLHLHEQPLLVGIFLDYEAGVVSFYNGNTGCHIFTFPKASFSDTLRPYFQVYQYSPLFLPPPGD | 60.7 | −0.355
TRIM44: human RING type E3 ligase expressed from lentiviral vector (protein, UniProt Q96DX7 1-344, looked up, lentiviral expression, human RING type E3 ligase expressed from lentiviral vector) Tripartite motif-containing …: MASGVGAAFEELPHDGTCDECEPDEAPGAEEVCRECGFCYCRRHAEAHRQKFLSHHLAEYVHGSQAWTPPADGEGAGKEEAEVKVEQEREIESEAGEESESEEESESEEESETEEESEDESDEESEEDSEEEMEDEQESEAEEDNQEEGESEAEGETEAESEFDPEIEMEAERVAKRKCPDHGLDLSTYCQEDRQLICVLCPVIGAHQGHQLSTLDEAFEELRSKDSGGLKAAMIELVERLKFKSSDPKVTRDQMKMFIQQEFKKVQKVIADEEQKALHLVDIQEAMATAHVTEILADIQSHMDRLMTQMAQAKEQLDTSNESAEPKAEGDEEGPSGASEEEDT | 61.7 | −0.342
TRIM35: human RING type E3 ligase expressed from lentiviral vector (protein, UniProt Q9UPQ4 1-493, looked up) E3 ubiquitin-protein ligase …: MERSPDVSPGPSRSFKEELLCAVCYDPFRDAVTLRCGHNFCRGCVSRCWEVQVSPTCPVCKDRASPADLRTNHTLNNLVEKLLREEAEGARWTSYRFSRVCRLHRGQLSLFCLEDKELLCCSCQADPRHQGHRVQPVKDTAHDFRAKCRNMEHALREKAKAFWAMRRSYEAIAKHNQVEAAWLEGRIRQEFDKLREFLRVEEQAILDAMAEETRQKQLLADEKMKQLTEETEVLAHEIERLQMEMKEDDVSFLMKHKSRKRRLFCTMEPEPVQPGMLIDVCKYLGSLQYRVWKKMLASVESVPFSFDPNTAAGWLSVSDDLTSVTNHGYRVQVENPERFSSAPCLLGSRVFSQGSHAWEVALGGLQSWRVGVVRVRQDSGAEGHSHSCYHDTRSGFWYVCRTQGVEGDHCVTSDPATSPLVLAIPRRLRVELECEEGELSFYDAERHCHLYTFHARFGEVRPYFYLGGARGAGPPEPLRICPLHISVKEELDG | 66.3 | −0.284
TRIM43: human RING type E3 ligase expressed from lentiviral vector (protein, UniProt Q96BQ3 1-446, looked up) Tripartite motif-containing …: MDSDFSHAFQKELTCVICLNYLVDPVTICCGHSFCRPCLCLSWEEAQSPANCPACREPSPKMDFKTNILLKNLVTIARKASLWQFLSSEKQICGTHRQTKKMFCDMDKSLLCLLCSNSQEHGAHKHHPIEEAAEEHREKLLKQMRILWKKIQENQRNLYEEGRTAFLWRGNVVLRAQMIRNEYRKLHPVLHKEEKQHLERLNKEYQEIFQQLQRSWVKMDQKSKHLKEMYQELMEMCHKPDVELLQDLGDIVARSESVLLHMPQPVNPELTAGPITGLVYRLNRFRVEISFHFEVTNHNIRLFEDVRSWMFRRGPLNSDRSDYFAAWGARVFSFGKHYWELDVDNSCDWALGVCNNSWIRKNSTMVNSEDIFLLLCLKVDNHFNLLTTSPVFPHYIEKPLGRVGVFLDFESGSVSFLNVTKSSLIWSYPAGSLTFPVRPFFYTGHR | 61.4 | −0.346
TRIM40: human RING type E3 ligase expressed from lentiviral vector (protein, UniProt Q6P9F5 1-258, looked up, lentiviral expression, human RING type E3 ligase expressed from lentiviral vector) E3 ubiquitin ligase TRIM40: MIPLQKDNQEEGVCPICQESLKEAVSTNCGHLFCRVCLTQHVEKASASGVFCCPLCRKPCSEEVLGTGYICPNHQKRVCRFCEESRLLLCVECLVSPEHMSHHELTIENALSHYKERLNRRSRKLRKDIAELQRLKAQQEKKLQALQFQVDHGNHRLEAGPESQHQTREQLGALPQQWLGQLEHMPAEAARILDISRAVTQLRSLVIDLERTAKELDTNTLKNAGDLLNRSAPQKLEVIYPQLEKGVSELLLQPPQKL | 62.8 | −0.328
TRIM39: human RING type E3 ligase expressed from lentiviral vector (protein, UniProt Q9HCM9 1-518, looked up) E3 ubiquitin-protein ligase …: MAETSLLEAGASAASTAAALENLQVEASCSVCLEYLKEPVIIECGHNFCKACITRWWEDLERDFPCPVCRKTSRYRSLRPNRQLGSMVEIAKQLQAVKRKIRDESLCPQHHEALSLFCYEDQEAVCLICAISHTHRAHTVVPLDDATQEYKEKLQKCLEPLEQKLQEITRCKSSEEKKPGELKRLVESRRQQILREFEELHRRLDEEQQVLLSRLEEEEQDILQRLRENAAHLGDKRRDLAHLAAEVEGKCLQSGFEMLKDVKSTLEKNIPRKFGGSLSTICPRDHKALLGLVKEINRCEKVKTMEVTSVSIELEKNFSNFPRQYFALRKILKQLIADVTLDPETAHPNLVLSEDRKSVKFVETRLRDLPDTPRRFTFYPCVLATEGFTSGRHYWEVEVGDKTHWAVGVCRDSVSRKGELTPLPETGYWRVRLWNGDKYAATTTPFTPLHIKVKPKRVGIFLDYEAGTLSFYNVTDRSHIYTFTDTFTEKLWPLFYPGIRAGRKNAAPLTIRPPTDWE | 58.6 | −0.382
